Reference: the supplement of paper PMC7877785
± gives the uncertainty stated by the source.

Test: self-splicing fitness, log relative to wild type (ln ratio); higher = more splicing; Tetrahymena group I intron in knt gene, E. coli kanamycin selection, DiMSum; sequences stand for … in CUCUCU…GGAGGGAAAAGUUAUCAGGCAUGCACCUGGUAGCUAGUCUUUAAACCAAUAGAUUGCAUCGGUUUAAAAGGCAAGACCGUCAAAUUGCGGGAAAGGGGUCAACAGCCGUUCAGUACCAAGUCUCAGGGGAAACUUUGAGAUGGCCUUGCAAAGGGUAUGGUAAUAAGCUGACGGACAUGGUCCUAACCACGCAGCCAAGUCCUAAGUCAACAGAUCUUCUGUUGAUAUGGAUGCAGUUCACAGACUAAAUGUCGGUCGGGGAAGAUGUAUUCUUCUCAUAAGAUAUAGUCGGACCUCUCCUUAAUGGGAGCUAGCGGAUGAAGUGAUGCAACACUGGAGCCGCUGGGAACUAAUUUGUAUGCGAAAGUAUAUUGAUUAGUUUUGGAGUACUCGUGGUCG
Summary of the method: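 Six replicate transformations of E. coli BL21(DE3) with a pET-22b(+) library were grown overnight at 37°C or 30°C. The library randomised all eight P1ex-region intron nucleotides, the intron lying in the knt kanamycin-resistance gene, and plates were LB agar with or without 25 μg/mL kanamycin plus 100 μg/mL carbenicillin, 50 μM IPTG and 0.2% rhamnose. Pooled colonies were amplicon-sequenced on an Illumina HiSeq 2500, and fitness is the DiMSum error-weighted combination of wild-type-normalised replicate fold changes, kanamycin versus none.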

Sequence | self-splicing fitness (ln) (30 °C) | self-splicing fitness (ln) (37 °C)
UAUCAGCAAUAUUACGUAAG | -2.16 ± 0.16 | -1.09 ± 0.17
GCUAAGCAAUAUUACGAUUG | -2.78 ± 0.11 | -1.17 ± 0.12
UUGUAGCAAUAUUACGAGUA | -2.13 ± 0.31 | -1.22 ± 0.29
CGAUAGCAAUAUUACGCCGC | -3.37 ± 0.37 | -1.3 ± 0.47
AGUUAGCAAUAUUACGUUAU | -3.25 ± 0.17 | -2.08 ± 0.17
AUUAAGCAAUAUUACGGAUC | -1.85 ± 0.16 | -0.479 ± 0.18
GGGAAGCAAUAUUACGAGUA | – | -2.29 ± 0.36
CACGAGCAAUAUUACGAACG | -0.211 ± 0.12 | 0.033 ± 0.14
GGUUAGCAAUAUUACGGGUG | -1.7 ± 0.1 | -1.08 ± 0.12
GUGAAGCAAUAUUACGAUAU | -0.274 ± 0.044 | -0.103 ± 0.058
AUGAAGCAAUAUUACGUGUC | -2.97 ± 0.28 | -2.26 ± 0.34
CUGGAGCAAUAUUACGUUGG | -2.89 ± 0.14 | -1.86 ± 0.15
UGAUAGCAAUAUUACGCUUA | -2.07 ± 0.12 | -0.143 ± 0.12
GAUGAGCAAUAUUACGCUCC | -3 ± 0.3 | –
AUCUAGCAAUAUUACGCUCU | -0.469 ± 0.11 | -0.244 ± 0.12
UGCCAGCAAUAUUACGCACA | -0.53 ± 0.093 | -0.708 ± 0.15
ACUAAGCAAUAUUACGCUCA | -0.894 ± 0.12 | -0.989 ± 0.14
CAUAAGCAAUAUUACGAGGA | -3.13 ± 0.18 | -2.23 ± 0.21
CCACAGCAAUAUUACGUCUG | -3.12 ± 0.088 | -1.98 ± 0.083
AUUAAGCAAUAUUACGUUGA | -2.67 ± 0.24 | -1.95 ± 0.16
ACUGAGCAAUAUUACGAUCU | -1.28 ± 0.12 | -0.653 ± 0.1
ACAGAGCAAUAUUACGUCGG | -3.64 ± 0.16 | -3.58 ± 0.23
GGGUAGCAAUAUUACGUAGG | -2.74 ± 0.24 | -1.5 ± 0.2
AGUCAGCAAUAUUACGCCCG | -0.925 ± 0.12 | -1.52 ± 0.17
UCGUAGCAAUAUUACGCUUU | -2.74 ± 0.14 | -2.4 ± 0.15

Sequence | self-splicing fitness (ln) (30 °C) | self-splicing fitness (ln) (37 °C)
CACAAGCAAUAUUACGAGUG | -4.41 ± 0.15 | -2.02 ± 0.12
UCUCAGCAAUAUUACGAUUA | -0.806 ± 0.11 | -0.539 ± 0.12
UGGGAGCAAUAUUACGUCUC | -3.13 ± 0.32 | -2.93 ± 0.44
AUCUAGCAAUAUUACGGCUG | -1.21 ± 0.14 | 0.594 ± 0.18
GGAGAGCAAUAUUACGGCUA | -2.06 ± 0.32 | -1.25 ± 0.18
AUGCAGCAAUAUUACGCUCA | -0.858 ± 0.061 | -0.215 ± 0.075
CGACAGCAAUAUUACGCACA | -0.429 ± 0.17 | 0.097 ± 0.17
UUGUAGCAAUAUUACGAUAG | -1.52 ± 0.2 | -1.16 ± 0.17
ACUUAGCAAUAUUACGCACG | -1.55 ± 0.1 | -0.683 ± 0.13
UCUAAGCAAUAUUACGAACU | -2.55 ± 0.11 | -2.26 ± 0.15
UGAGAGCAAUAUUACGCAGC | -3.13 ± 0.23 | -2.16 ± 0.3
UGGUAGCAAUAUUACGUCUG | -0.683 ± 0.11 | 0.409 ± 0.17
UGCUAGCAAUAUUACGCUGG | -3.07 ± 0.23 | -2.25 ± 0.32
CAACAGCAAUAUUACGAUGC | -3.08 ± 0.15 | -2.01 ± 0.16
GCGAAGCAAUAUUACGAAUC | -2.47 ± 0.11 | -1.11 ± 0.12
AAACAGCAAUAUUACGGGUG | -3.09 ± 0.094 | -1.73 ± 0.089
CAUGAGCAAUAUUACGUCAU | -3.61 ± 0.24 | -1.24 ± 0.22
UGCGAGCAAUAUUACGUCUG | -1.24 ± 0.1 | -1.36 ± 0.13
UUUCAGCAAUAUUACGGUGC | -3.27 ± 0.21 | -3.4 ± 0.39
GGGUAGCAAUAUUACGCAUU | -0.339 ± 0.094 | -0.245 ± 0.1
AAUGAGCAAUAUUACGCAUU | -3.92 ± 0.47 | -2.74 ± 0.36
GGUGAGCAAUAUUACGGGAA | -1.89 ± 0.3 | -2.5 ± 0.48
UGGCAGCAAUAUUACGUAUC | -3.85 ± 0.31 | -1.82 ± 0.25
GUUGAGCAAUAUUACGAUAG | – | -3.04 ± 0.31
UUCUAGCAAUAUUACGCCUU | -3.43 ± 0.21 | -2.57 ± 0.15

Sequence | self-splicing fitness (ln) (30 °C) | self-splicing fitness (ln) (37 °C)
GCGGAGCAAUAUUACGGUGA | -2.38 ± 0.46 | –
AGAGAGCAAUAUUACGCCCA | – | -0.88 ± 0.36
UGUGAGCAAUAUUACGACCA | -1.27 ± 0.17 | -0.0518 ± 0.21
CCCUAGCAAUAUUACGAAGG | -4.03 ± 0.21 | -2.71 ± 0.23
UCCGAGCAAUAUUACGGUUG | -3.29 ± 0.26 | -3.07 ± 0.3
UUAAAGCAAUAUUACGACUU | -1.11 ± 0.1 | -0.0515 ± 0.14
UUGCAGCAAUAUUACGUACG | -0.368 ± 0.08 | 0.233 ± 0.1
GGCGAGCAAUAUUACGCUUA | -1.63 ± 0.15 | -0.623 ± 0.15
GCUAAGCAAUAUUACGUAUG | -2.2 ± 0.1 | -1.12 ± 0.14
CUAGAGCAAUAUUACGUACC | -4.52 ± 0.24 | -3.09 ± 0.35
GAAUAGCAAUAUUACGAGGG | -3.39 ± 0.18 | -3.25 ± 0.19
GCUGAGCAAUAUUACGUAAA | -2.97 ± 0.19 | -2.31 ± 0.17
CCUUAGCAAUAUUACGACCC | -2.95 ± 0.44 | –
GGAGAGCAAUAUUACGGGUU | -3.71 ± 0.24 | -2.46 ± 0.19
CGGUAGCAAUAUUACGUCGA | -2.09 ± 0.23 | -0.214 ± 0.16
GGCCAGCAAUAUUACGAGAA | – | -2.06 ± 0.36
AUUCAGCAAUAUUACGGAGC | -2.82 ± 0.23 | -1.71 ± 0.19
CUGGAGCAAUAUUACGAACG | -0.869 ± 0.15 | 0.129 ± 0.16
UGAGAGCAAUAUUACGCACU | -3.11 ± 0.32 | -2.02 ± 0.21
AUGCAGCAAUAUUACGACCC | -0.995 ± 0.2 | -0.303 ± 0.31
AGUUAGCAAUAUUACGAGGC | -3.83 ± 0.27 | -3.27 ± 0.23
GUGGAGCAAUAUUACGGAAA | -1.87 ± 0.46 | –
UAUAAGCAAUAUUACGUACA | -0.793 ± 0.12 | -0.427 ± 0.14
AAUUAGCAAUAUUACGGAGC | -2.52 ± 0.3 | -2.64 ± 0.33
AGAUAGCAAUAUUACGCAUG | -1.58 ± 0.14 | -0.884 ± 0.14

Sequence | self-splicing fitness (ln) (30 °C) | self-splicing fitness (ln) (37 °C)
UUCUAGCAAUAUUACGCUCA | -0.563 ± 0.15 | -0.208 ± 0.19
ACGUAGCAAUAUUACGCUUU | -1.92 ± 0.058 | -1.11 ± 0.075
UAGCAGCAAUAUUACGAUCU | -1.92 ± 0.081 | -1.08 ± 0.077
CCGCAGCAAUAUUACGAGCA | -3.01 ± 0.38 | -3.24 ± 0.47
GCAUAGCAAUAUUACGCAUA | -2.29 ± 0.15 | -1.16 ± 0.12
CAUUAGCAAUAUUACGCUCA | -1.21 ± 0.07 | -0.215 ± 0.073
AAUGAGCAAUAUUACGGAGU | – | -0.994 ± 0.44
CUUAAGCAAUAUUACGCAUC | – | -0.617 ± 0.29
CACCAGCAAUAUUACGCGCC | -2.68 ± 0.17 | -2.4 ± 0.2
CACGAGCAAUAUUACGCCCA | -1.81 ± 0.4 | -1.72 ± 0.28
GAUAAGCAAUAUUACGACUU | 0.544 ± 0.08 | 0.0887 ± 0.095
CUAUAGCAAUAUUACGAAUC | -2.05 ± 0.36 | -1.9 ± 0.33
CCCGAGCAAUAUUACGGUCA | -4.25 ± 0.46 | -2.57 ± 0.26
GACCAGCAAUAUUACGUCCG | -4.09 ± 0.27 | -2.12 ± 0.17
ACGCAGCAAUAUUACGGCUG | -3.03 ± 0.16 | -3.01 ± 0.22
AGCGAGCAAUAUUACGCCGU | – | -1.24 ± 0.34
GGCUAGCAAUAUUACGCGCU | -2.76 ± 0.25 | -2.42 ± 0.3
AUGAAGCAAUAUUACGGAGC | -3.69 ± 0.39 | -1.72 ± 0.2
UUCCAGCAAUAUUACGGCUG | -3.09 ± 0.2 | -2.68 ± 0.25
GUACAGCAAUAUUACGGGCA | -1.9 ± 0.093 | -0.873 ± 0.088
CCGCAGCAAUAUUACGCAUG | -2.91 ± 0.1 | -0.661 ± 0.076
AGGCAGCAAUAUUACGAGCG | -1.13 ± 0.074 | 0.237 ± 0.088
GUCAAGCAAUAUUACGGUUA | -2.2 ± 0.14 | -0.972 ± 0.1
